Test results: patent publication US20190375831A1 (US Dept. of Health and Human Services, published 2019)

Key:
[1] = biological target: T1, recombinant PfCSP (rPfCSP, residues 21-375) (Plasmodium falciparum, UniProt P19597 21-375); experiment: ELISA on coated rPfCSP, OD405nm
T1 construct: also called recombinant wild type PfCSP; not shown: C-terminal Avi-tag, HRV3C-processing tag and His-purification tag

[2] = biological target: T2, PfCSP on P. falciparum sporozoites (PfSPZ) (Plasmodium falciparum, UniProt P19597 19-374); experiment: ELISA on coated PfSPZ, OD405nm
[3] = biological target: T1, recombinant PfCSP (rPfCSP, residues …); experiment: ITC, one binding event
[4] = biological target: T1, recombinant PfCSP (rPfCSP, residues …); experiment: biolayer interferometry, biotinylated CSP on the sensor, whole IgG in solution; apparent KD
[5] = biological target: T1, recombinant PfCSP (rPfCSP, residues …); experiment: ITC, mAb injected into rPfCSP, one set of sites (Kd = 51 nM)
[6] = biological target: T1, recombinant PfCSP (rPfCSP, residues …); experiment: ITC, first binding event
[7] = biological target: T1, recombinant PfCSP (rPfCSP, residues …); experiment: ITC, second binding event
[8] = biological target: T2, PfCSP on P. falciparum sporozoites …; experiment: immunofluorescence assay on PfSPZ
[9] = biological target: T1, recombinant PfCSP (rPfCSP, residues …); experiment: ITC, CIS43 Fab injected into rPfCSP, two sets of sites, second set
[10] = biological target: T1, recombinant PfCSP (rPfCSP, residues …); experiment: ITC, CIS43 Fab injected into rPfCSP, two sets of sites, first set
[11] = biological target: T1, recombinant PfCSP (rPfCSP, residues …); experiment: ITC, mAb injected into rPfCSP, one set of sites (Kd = […] nM)
[12] = biological target: T1, recombinant PfCSP (rPfCSP, residues …); experiment: ITC, mAb injected into rPfCSP, one set of sites (Kd = […] nM)

T1 sequence (P19597 21-375): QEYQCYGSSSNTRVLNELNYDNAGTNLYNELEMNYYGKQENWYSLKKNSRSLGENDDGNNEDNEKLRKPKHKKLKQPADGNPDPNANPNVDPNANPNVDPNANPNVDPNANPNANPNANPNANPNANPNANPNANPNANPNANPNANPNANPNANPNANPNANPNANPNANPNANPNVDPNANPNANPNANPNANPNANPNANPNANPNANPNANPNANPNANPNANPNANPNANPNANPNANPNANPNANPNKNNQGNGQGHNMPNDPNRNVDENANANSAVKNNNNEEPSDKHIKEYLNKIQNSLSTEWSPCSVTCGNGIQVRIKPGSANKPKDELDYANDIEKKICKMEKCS
T2 sequence (P19597 19-374 limits assumed): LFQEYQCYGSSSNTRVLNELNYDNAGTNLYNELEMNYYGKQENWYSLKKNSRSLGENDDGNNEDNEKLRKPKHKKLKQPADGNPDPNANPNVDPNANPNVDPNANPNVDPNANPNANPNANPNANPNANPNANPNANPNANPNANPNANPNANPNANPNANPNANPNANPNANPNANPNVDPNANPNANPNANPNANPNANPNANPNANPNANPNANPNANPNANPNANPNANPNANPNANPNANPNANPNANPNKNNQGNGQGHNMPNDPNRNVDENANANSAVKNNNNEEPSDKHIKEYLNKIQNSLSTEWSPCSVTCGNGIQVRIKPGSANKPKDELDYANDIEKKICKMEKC

B1: CIS06 (antibody, V domains shown)
VH: QVQLVQSGPEVKKPGTSVKVSCKASGFTFSSSAVQWVRQARGQRLEWIGWIVVGSGKTKYAQNFQQRVTITRDMSTSTAYLELSTLRSEDTAVYYCAAVVNWNDESGFDPWGQGTLVTVSS
VL: DIQMTQSPSSLSAFVGDRVTITCRASQSIGTYLNWYQQKVGQAPKLLIYTASSLRSGVPSRFSGSGSGTDFTLTITSLQPEDFATYYCQQSYSTYTFGQGTKLEIK
notes: also called mAb CIS06
EC50 (read off the curve) [1]: ~100 ng/mL

B2: mAb CIS42 (antibody, V domains shown)
VH: QVQLVQSGSELKKPGASVKVSCKTSGYTFTTYAMNWVRQAPGQGLEWMGWINTNTGNPTYAPGFTGRFVFSFDTSVSTAYLQISSLKAEDTAVYYCARVYSYGVPFDYWGQGTLVTVSS
VL: QSVLTQPASVSGSPGQSITISCTATSSNVGSFNLVSWYQHHPGKAPKLIIHEVSKRPSGASNRFSGSKSGNTASLTISGLQAEDEADYYCCSYVGSDTWVFGGGTKLTVL
binding result [2]: binds
Kd [3]: 51 nM
Kd [4]: 0.76 nM
-TΔS [5]: 12.8 kcal/mol
ΔG [5]: -9.9 kcal/mol
ΔH [5]: -22.7 kcal/mol
EC50 (read off the curve) [1]: ~5 ng/mL

B3: mAb CIS34 (antibody, human IgG1, kappa, V domains shown)
VH: QVQLVESGGGVVQPGRSLRLSCAASGFTFSSYGIHWVRQAPGKGLEWVAVIWYDGSKKYYGDSVKGRFTISRDNSKNTLYLQMNSLRVEDTAVYYCARAVIAATGTRGYWFDPWGQGTLVTVSS
VL: DIIMTQSPVSLSASVGDRVTITCRASQSISSHLNWYQQKPGKAPKLLIYAASSLQSGVPSRFSGSGSGTDFTLTISSLQPEDFATYSCQQTYRGFTFAPGTKVDIKR
Kd [6]: 31 nM
binding result [2]: binds
Kd [4]: 1.5 nM
Kd [7]: 80 nM
EC50 (read off the curve) [1]: ~3 ng/mL

B4: CIS04 (antibody, V domains shown)
VH: QVQLVQSGAEVKKPGASVKVSCKASGYTFTSYAIHWVRQAPGQRLEWMGWIKAGNGDTRYSQKFQGRVTITRDTSATTAYMELSSLRSEDTAVYYCGLLTVLTPDDAFDIWGQGTMVTVSS
VL: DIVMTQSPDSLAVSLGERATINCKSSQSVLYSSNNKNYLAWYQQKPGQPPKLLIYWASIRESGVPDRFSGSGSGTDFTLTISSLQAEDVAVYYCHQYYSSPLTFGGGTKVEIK
notes: also called mAb CIS04
binding result [8]: binds

B5: CIS43 Fab (Fab, V domains shown)
VH: QVQLVQSGAEVKKPGASVKVSCKASGYTFTSYAIHWVRQAPGQRLEWMGWIKAGNGNTRYSQKFQDRVTITRDTSTTTAYMELSSLRSEDTAVYYCALLTVLTPDDAFDIWGQGTMVTVSS
VL: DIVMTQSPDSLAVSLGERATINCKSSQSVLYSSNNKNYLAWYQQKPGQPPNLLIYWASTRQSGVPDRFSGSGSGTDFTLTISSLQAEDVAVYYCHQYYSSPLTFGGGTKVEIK
-TΔS2 [9]: -4.3 kcal/mol
Kd [9]: 250 nM
ΔG2 [9]: -9 kcal/mol
ΔH2 [9]: -4.7 kcal/mol
-TΔS1 [10]: 12 kcal/mol
Kd [10]: 16 nM
ΔG1 [10]: -10.6 kcal/mol
ΔH1 [10]: -22.6 kcal/mol

B6: mAb10 (antibody, human IgG1, kappa, V domains shown)
VH: EVQLVESGGGVVQPGRSLRLSCEASGFTFSTYGMHWVRQAPGKGLEWVAIIWHDGSKKYHADSVRGRFTISRDNSKNTLYLQMNSLRAEDTAVYFCARVGNYGGDWGAGFDYWGQGTLVTVSS
VL: DIQMTQSPSFLSASVGDRVTIACRASQSISSWLAWYQQKPGKAPKLLIYHASSLESGVPSRFSGSASGTEFALTISSLQPDDFATYYCQQYSSYWTFGQGTKVEIKR
-TΔS [11]: 22.7 kcal/mol
ΔH [11]: -33 kcal/mol

B7: mAb CIS23 (antibody, V domains shown)
VH: EVQLVESGGGVVQPGRSLRLSCAASGFTFSSYGMYWVRQAPGKGLEWVALISHDGSNKFYADSVKGRFTISRDNSKNTLYLQMNSLRAEDTAVYYCAKDLGYSSSWGYFDYWGQGTLVTVSS
VL: EIVLTQSPATLSLSPGERATLSCRASQSVSSYLAWYQQKPGQAPRLLIYDASNRATGIPARFSGSGSGTDFTLTISSLEPEDFAVYYCQQRSNWYTFGQGTKLEIK
-TΔS [12]: 13.1 kcal/mol
ΔG [12]: -10.4 kcal/mol
ΔH [12]: -23.5 kcal/mol
binding result [2]: binds
